From patent US20080248043A1 (Amgen, published 2008) come the findings set out here.

B1: 6B5 (antibody, V domains shown)
VH: not shown
VL: DIQMTQSPSSLSASVGDRVTITCRASQGIRSDLGWYQQRPGKTPKRLIYAASSLQSGVPSRFSGSGSGTEFTLTISSLQPEDFATYYCQQYNSYPLTFGGGTKVEIK
B2: 5E4 (antibody, V domains shown)
VH: QVHLVQSGAEVKKPGASVKVSCKASGYTFTGYYVHWVRQAPGQGLEWMGWINPNSGGTNYAQKFQGRVTMTRDTSISTAYMELSRLRSDDTAVYFCAGGRYLDYWGQGTLVTVSS
VL: B1 VL with S31N, R39K, T43A, Q89L, L96I, G100Q, K103R, V104L
B3: 5D3 (antibody, V domains shown)
VH: QVQLVQSGAEVKKPGASVKVSCKASGYTFTSYGISWVRQAPGQGLEWMGWISAYNGNTNYAQKLQGRVTMTTDTSTSTAYMELRSLRSDDTAVYYCAVGRYLDYWGQGTLVTVSS
VL: B1 VL with G28D, S31N, R39K, T43A, Q89L
B4: 6B8 (antibody, V domains shown)
VH: B3 VH
VL: B1 VL with G28D, S31N, R39K, T43A, Q89L
B5: 1B5 (antibody, V domains shown)
VH: QVQLVESGGGVVQPGRSLRLSCAASGFTFSSYGMHWVRQAPGKGLEWVAVIWYDGSNKYYADSVKGRFTISRDNSKNTLYLQMNSLRAEDTAVYYCARGDFYWFDPWGQGTLVTVSS
VL: B1 VL
B6: 5A7 (antibody, V domains shown)
VH: B3 VH
VL: B1 VL with G28D, S31N, R39K, T43A, Q89L
B7: 3A7 (antibody, V domains shown)
VH: B3 VH
VL: B1 VL with G28D, S31N, R39K, T43A, Q89L
B8: 3H12 (antibody, V domains shown)
VH: QVQLQESGPGLVKPSETLSLTCTVSDGSISSFYWSWIRQPPGKGLEWIGYIYYSGSTNYNPSLKSRVTISVDTSKNQFSLKLSSVTAADTAVYYCARDYDILTGYSNYYGMDVWGQGTTVTVSS
VL: B1 VL with S31N, R39K, T43A, Q89L, Y91H, L96F, G100P, V104L, E105D
B9: 5A5 (antibody, V domains shown)
VH: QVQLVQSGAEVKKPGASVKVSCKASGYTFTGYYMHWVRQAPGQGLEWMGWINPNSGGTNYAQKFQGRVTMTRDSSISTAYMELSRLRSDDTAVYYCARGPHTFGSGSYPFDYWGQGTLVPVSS
VL: B1 VL with M4L
B10: 4A10 (antibody, V domains shown)
VH: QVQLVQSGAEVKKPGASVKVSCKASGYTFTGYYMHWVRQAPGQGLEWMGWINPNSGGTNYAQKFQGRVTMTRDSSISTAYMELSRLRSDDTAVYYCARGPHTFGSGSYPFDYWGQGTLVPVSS
VL: B1 VL with M4L
B11: 4E2 (antibody, V domains shown)
VH: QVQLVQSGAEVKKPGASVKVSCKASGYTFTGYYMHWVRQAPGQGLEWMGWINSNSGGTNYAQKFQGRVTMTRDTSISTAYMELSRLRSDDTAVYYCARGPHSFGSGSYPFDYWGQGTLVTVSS
VL: B1 VL
B12: 6C1 (antibody, V domains shown)
VH: QVQLVQSGAEVKKPGASVKVSCKASGFPFTDYYMHWVRQAPGQGLEWMGWINSNSGGTNYAQKFQGRVTMTRDTSISTAYMELSRLRSDDTAVYYCARGPHSFGSGSYPFDYWGQGTLVTVSS
VL: B1 VL
B13: 3F3 (antibody, V domains shown)
VH: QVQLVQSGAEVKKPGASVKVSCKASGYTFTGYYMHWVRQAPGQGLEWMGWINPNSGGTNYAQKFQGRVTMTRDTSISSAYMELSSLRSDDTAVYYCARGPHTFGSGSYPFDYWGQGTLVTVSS
VL: B1 VL with K42N
B14: 6C2 (antibody, V domains shown)
VH: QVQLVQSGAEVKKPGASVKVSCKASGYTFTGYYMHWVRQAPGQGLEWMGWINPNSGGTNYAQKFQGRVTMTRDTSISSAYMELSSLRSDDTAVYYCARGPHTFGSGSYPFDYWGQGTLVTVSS
VL: B1 VL with K42N
B15: 5D6 (antibody, V domains shown)
VH: B3 VH with S77N
VL: B1 VL with G28D, S31N, R39K, T43A, Q89L
B16: 4G2 (antibody, V domains shown)
VH: B12 VH
VL: B1 VL
B17: 3C7 (antibody, V domains shown)
VH: QVQLVESGGGVVQPGTSLRLSCAASGFTFSSYGIHWVRQAPGKGLEWVAVIWYDGSNKFYADSVKGRFTISRDNSKNTLYLQMNSLRAEDTAVYYCARDPLGYCSSTSCSYFDYWGQGTLVTVSS
VL: DIQMTQSPSSVSASVGDRVTITCRASQGISNWLAWYQQKPGKAPKLLIYAASSLQSGVPSRFSGSGSGTDFTLTIRSLQPEDFATYYCQQANNFPLTFGGGTKVEIK
B18: 6B1 (antibody, V domains shown)
VH: B17 VH with Y60H
VL: B17 VL with R76S

Residue numbers refer to the chain shown, from its start.

This assay concerns the target S protein of SARS-CoV Urbani strain (on virus) (SARS-CoV Urbani strain, UniProt P59594 14-1255). Nature of the assay: cell-based or functional assay.
With B1, the “Neutralizing titer 200TCID50” value came out at 3.12 µg/mL. With B2 the figure was 12.5 µg/mL.

Regarding B3, the “Neutralizing titer 200TCID50” value amounted to 0.195 µg/mL. With B4 the figure was 0.781 µg/mL; with B5, 0.195 µg/mL.

B6: the “Neutralizing titer 200TCID50” value is 0.781 µg/mL.

Consider B7, for which the “Neutralizing titer 200TCID50” value turned out to be 0.195 µg/mL. In the case of B8 it was 3.12 µg/mL. In the case of B9, the “Neutralizing titer 200TCID50” value worked out at 0.195 µg/mL.

Regarding B10, the “Neutralizing titer 200TCID50” value was 3.12 µg/mL.

Turning to B11, the “Neutralizing titer 200TCID50” value was found to be 0.781 µg/mL. In the case of B12 it was 0.781 µg/mL; in that of B13, 0.781 µg/mL.

As for B14, the “Neutralizing titer 200TCID50” value was determined as 0.781 µg/mL.

Take B15: the “Neutralizing titer 200TCID50” value came out at 0.195 µg/mL. With B16 the figure was 0.781 µg/mL; with B17, 12.5 µg/mL.

Regarding B18, the “Neutralizing titer 200TCID50” value is 3.12 µg/mL.
